# Columns and labels:
# Format in all cases: biochemical, Arabidopsis thaliana
# [1] = substrate: OC[C@H]1O[C@H](OC[C@H]2O[C@H](O[C@]3(CO)O[C@H](CO)[C@@H](O)[C@@H]3O)[C@H](O)[C@@H](O)[C@@H]2O)[C@H](O)[C@@H](O)[C@H]1O; test: HPAEC-PAD, stachyose formation; details: stachyose synthase reaction, galactosyl acceptor, co-substrate galactinol (standard assay 100 μM), 25 mM K-phosphate pH 7, 25°C, 60 min
# [2] = substrate: OC[C@H]1O[C@H](O[C@@H]2[C@@H](O)[C@H](O)[C@@H](O)[C@H](O)[C@@H]2O)[C@H](O)[C@@H](O)[C@H]1O; test: HPAEC-PAD, stachyose formation; details: stachyose synthase reaction, galactosyl donor, co-substrate raffinose (standard assay 400 μM), range 50 to 1,200 μM, 25 mM K-phosphate pH 7, 25°C, 60 min
# [3] = substrate: OC[C@H]1O[C@H](OC[C@H]2O[C@H](OC[C@H]3O[C@H](O[C@]4(CO)O[C@H](CO)[C@@H](O)[C@@H]4O)[C@H](O)[C@@H](O)[C@@H]3O)[C@H](O)[C@@H](O)[C@H]2O)[C@H](O)[C@@H](O)[C@H]1O; test: HPAEC-PAD, raffinose formation; details: galactosylhydrolase reaction, stachyose alone, range 50 to 1,200 μM, 25 mM K-phosphate pH 7, 25°C, 60 min
protein,measurement,setting,value
"AtRS4 (AtSTS, AtStaS, At4g01970) (Arabidopsis thaliana) (protein) MAPLHESLSSINDVIESKPLFVPITKPILQPNSFNLSEGSLCAKDSTPILFDVPQNVTFTPFSSHSISTDAPLPILLRVQANAHKGGFLGFTKESPSDRLTNSLGRFEDREFLSLFRFKMWWSTAWIGKSGSDLQAETQWVMLKIPEIDSYVAIIPTIEGAFRASLTPGEKGNVLICAESGSTKVKESSFKSIAYIHICDNPYNLMKEAFSALRVHMNTFKLLEEKKLPKIVDKFGWCTWDACYLTVDPATIWTGVKEFEDGGVCPKFVIIDDGWQSINFDGDELDKDAENLVLGGEQMTARLTSFKECKKFRNYKGGSFITSDASHFNPLKPKMLIYKATERIQAIILRRKLVKESGEQDLTELDEKIKILSEELNAMFDEVEKEESLGSDDVSGSGMAAFTKDLRLRFKSLDDIYVWHALCGAWNGVRPETMMDLKAKVAPFELSPSLGATMADLAVDKVVEAGIGLVHPSKAHEFYDSMHSYLASVGVTGAKIDVFQTLESLAEEHGGRVELAKAYYDGLTESMIKNFNGTDVIASMQQCNEFFFLATKQISIGRVGDDFWWQDPYGDPQGVYWLQGVHMIHCSYNSIWMGQMIQPDWDMFQSDHVCAEYHAASRAICGGPVYLSDHLGKASHNFDLIKKLAFFDGTIPRCVHYALPTRDSLFKNPLFDKESILKIFNFNKFGGVIGTFNCQGAGWSPEEHRFKGYKECYTTVSGTVHVSDIEWDQNPEAAGSQVTYTGDYLVYKQQSEEILFMNSKSEAMKITLEPSAFDLLSFVPVTELVSSGVRFAPLGLINMFNCVGTVQDMKVTGDNSIRVDVKGEGRFMAYSSSAPVKCYLNDKEAEFKWEEETGKLSFFVPWVEESGGISHLSFTF",Km,[1],259.2 ± 21.15 µM
same,Km,[2],"1,170 ± 246.8 μM"
same,Km,[3],"1,059 ± 269.3 μM"

# — paper PMC4587089, “Molecular cloning of AtRS4, a seed specific multifunctional RFO synthase/galactosylhydrolase in Arabidopsis thaliana” (Frontiers in Plant Science, 2015)
